From patent US20140322233A1 (Takeda / Millennium, published 2014)

Tests used:
[1] = biological target: T1, human GCC, full length with myc tag (293-GCC#2 cells) (human, UniProt P25092 24-1073); assay: cell-based or functional assay
TOK107-hIg [2] = biological target: T2, TOK107-hIg (human); assay: ELISA against TOK107-hIg
T2 construct: Expressed in HEK293 cells; Fc mutated at the CH1 cysteine and at lysine 235 and glycine 237 to alanine; also called hGCC-ECD/hIgG1 Fc; TOK107-hIgG

[3] = biological target: T3, human guanylyl cyclase C (GCC), full length (human, UniProt P25092 24-1073); assay: FACS with GCC-expressing cells (cell line not given); FACS EC50 on GCC-expressing cells
T3 construct: Full length GCC on transfected HT-29 (clones #2, #5, #18) and CT26 (#2.5, #32) cells and endogenous GCC on T84 cells; also called hGCC; STAR

TOK107-hIg [4] = biological target: T2, TOK107-hIg; assay: ELISA on coated TOK107-hIg
[5] = biological target: T3, human guanylyl cyclase C (GCC), full …; assay: FACS with GCC-expressing cells (cell line not given)
[6] = biological target: T3, human guanylyl cyclase C (GCC), full …; assay: FACS, HT-29#2 cells (full length GCC transfected)
[7] = biological target: T3, human guanylyl cyclase C (GCC), full …; assay: cell-based or functional assay
[8] = biological target: T1, human GCC, full length with myc tag …; assay: indirect immunofluorescence flow cytometry, 293 GCC #2 cells;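 also: cells exposed to the test antibodies for 1 h on ice before flow cytometric readout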

T2 sequence (chain, as listed by the source limits assumed): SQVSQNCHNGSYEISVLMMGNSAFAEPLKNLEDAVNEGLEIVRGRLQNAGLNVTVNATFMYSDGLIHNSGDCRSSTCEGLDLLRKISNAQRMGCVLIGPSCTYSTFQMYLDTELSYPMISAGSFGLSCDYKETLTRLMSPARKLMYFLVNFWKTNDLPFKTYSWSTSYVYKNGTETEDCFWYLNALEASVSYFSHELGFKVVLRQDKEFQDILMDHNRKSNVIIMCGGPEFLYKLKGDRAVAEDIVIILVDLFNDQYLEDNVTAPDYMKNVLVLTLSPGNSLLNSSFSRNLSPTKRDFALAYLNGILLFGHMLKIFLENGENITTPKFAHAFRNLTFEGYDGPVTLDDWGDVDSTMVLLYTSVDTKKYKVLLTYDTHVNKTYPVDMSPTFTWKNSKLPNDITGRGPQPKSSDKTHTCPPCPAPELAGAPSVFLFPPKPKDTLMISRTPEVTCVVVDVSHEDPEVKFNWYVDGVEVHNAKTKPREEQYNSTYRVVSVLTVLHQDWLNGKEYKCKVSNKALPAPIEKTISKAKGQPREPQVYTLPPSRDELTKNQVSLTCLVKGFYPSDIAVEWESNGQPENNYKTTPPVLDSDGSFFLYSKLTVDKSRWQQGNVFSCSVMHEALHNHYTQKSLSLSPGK
T1 sequence (P25092 24-1073): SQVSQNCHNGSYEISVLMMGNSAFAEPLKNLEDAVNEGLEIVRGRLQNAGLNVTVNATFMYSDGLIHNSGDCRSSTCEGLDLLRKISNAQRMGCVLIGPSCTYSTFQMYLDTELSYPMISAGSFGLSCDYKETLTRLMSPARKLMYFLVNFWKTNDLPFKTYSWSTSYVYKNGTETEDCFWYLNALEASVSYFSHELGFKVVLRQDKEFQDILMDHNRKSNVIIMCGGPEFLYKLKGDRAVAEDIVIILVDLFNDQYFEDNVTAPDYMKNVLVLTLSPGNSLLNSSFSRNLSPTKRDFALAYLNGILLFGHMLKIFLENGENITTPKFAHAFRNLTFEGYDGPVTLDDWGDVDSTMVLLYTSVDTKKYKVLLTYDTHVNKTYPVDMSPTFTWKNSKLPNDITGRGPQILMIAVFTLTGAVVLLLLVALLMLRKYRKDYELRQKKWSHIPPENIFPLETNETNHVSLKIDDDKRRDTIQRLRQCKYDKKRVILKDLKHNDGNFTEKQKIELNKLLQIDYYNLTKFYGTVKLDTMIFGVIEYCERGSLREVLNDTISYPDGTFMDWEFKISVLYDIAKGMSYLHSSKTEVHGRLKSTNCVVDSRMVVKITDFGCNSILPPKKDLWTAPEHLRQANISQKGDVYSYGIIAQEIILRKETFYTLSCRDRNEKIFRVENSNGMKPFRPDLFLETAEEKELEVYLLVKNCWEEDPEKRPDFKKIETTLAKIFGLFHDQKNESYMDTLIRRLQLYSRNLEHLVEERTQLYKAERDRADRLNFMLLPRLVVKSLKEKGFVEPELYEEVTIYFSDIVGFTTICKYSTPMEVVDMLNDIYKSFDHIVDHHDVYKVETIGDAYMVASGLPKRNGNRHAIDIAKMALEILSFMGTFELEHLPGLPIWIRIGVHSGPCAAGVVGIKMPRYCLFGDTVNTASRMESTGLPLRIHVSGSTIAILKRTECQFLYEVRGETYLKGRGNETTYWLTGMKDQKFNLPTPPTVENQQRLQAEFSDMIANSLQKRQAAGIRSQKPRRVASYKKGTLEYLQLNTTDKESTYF
T3 sequence (P25092 24-1073 limits assumed): as the sequence (P25092 24-1073) above

B1: mAb Abx-198 (antibody, IgG1, V domains shown)
VH: EVQLLESGGGLVQPGGSLRLSCAASGFTFSSYAMSWVRQAPGKGLDWVSDISGSGGSTYYADSVKGRFTISRDNSKNTLYLQMHSLSAEDTAIYYCAKRRWQGYFDLWGRGTLVTVSS
VL: EIVLTQSPGTLSLSPGERATLSCRARQRVDSRYLAWYQQKPGQAPRLLIYGASSRATGIPDRFSGSGSGTDFTLTISRLEPEDFAVYYCQQYGSSPLTFGGGTKVEIK
B1 was tested, and the “LD50, indirect cytotoxicity with DM1-conjugated mouse anti-human IgG, 293-GCC#2 cells, WST after 4 days” value (“LD50, indirect cytotoxicity” below) [1] was > 5400 pM and the EC50 (TOK107-hIg [2]) was 47.7 nM.

B2: mAb 3G1 (antibody, IgG1, V domains shown)
VH: QVQLKESGPGLVAPSQSLSITCTVSGFSLSRNAISWVRQPPGKGLEWLGVIWTGGGTNYNSALKSRLSIRKENSKSQVFLKMNSLQTEDTARYFCARSGYDGFDYWGQGTLVTVSA
VL: QIVLTQSPAIMSASPGEKVTMTCSASSSVNYMHWYQQKSGTSPKRWIYDTSKLASGVPARFSGSGSGTSYSLTITSMEAEDAATYYCQQWSGNPYTFGGGTKLEIK
For B2, the EC50 (TOK107-hIg [2]) was 22.8 nM and the EC50 [3] was 0.58 nM.

B3: mAb Abx-106 (antibody, IgG1, V domains shown)
VH: QVQLQESGPGLVKPSETLSLTCTVSGASISHYYWSWIRQPAGKGLEWIGRIYISGRTSYNPSLKSRVTVSVDTSKNQFSLKLSSVTAADTAVYYCARDRLTGYFDYWGQGTLVTVSS
VL: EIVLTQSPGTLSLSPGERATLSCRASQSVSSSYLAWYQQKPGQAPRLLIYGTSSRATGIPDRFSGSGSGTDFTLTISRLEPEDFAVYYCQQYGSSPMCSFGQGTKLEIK
B3 was tested, and the “LD50, indirect cytotoxicity” value [1] was 166 pM and the binding result (TOK107-hIg [4]) was “binds”.

B4: mAb Abx-012 (antibody, IgG1, V domains shown)
VH: QVQLQESGPGLVKPSETLSLTCTVSGASISHYYWSWIRQPAGKGLEWIGRIYISGRTSYNPSLKSRVTVSVDTSKNQFSLKLSSVTAADTAVYYCARDRLTGYFDYWGQGTLVTVSS
VL: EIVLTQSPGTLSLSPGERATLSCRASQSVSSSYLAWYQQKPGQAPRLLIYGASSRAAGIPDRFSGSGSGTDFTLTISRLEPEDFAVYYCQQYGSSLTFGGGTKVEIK
notes: also called Abx-12
With B4 the “LD50, indirect cytotoxicity” value [1] was 279 pM and the EC50 (TOK107-hIg [2]) was 0.555 nM.

B5: mAb Abx-338 (antibody, IgG1, V domains shown)
VH: QVQLQESGPGLVKPSETLSLTCTVSGGSIRSYYWSWIRQPAGKGLEWIGRIYISGRTTFNPSLKSRVTISVDTSKNQFSLKLSSVTAADTAVYFCARDRYYGYLDYWGQGTLVTVSS
VL: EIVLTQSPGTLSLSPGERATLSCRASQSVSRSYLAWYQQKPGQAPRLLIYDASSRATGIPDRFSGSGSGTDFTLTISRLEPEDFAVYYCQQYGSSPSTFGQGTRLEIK
B5 was tested, and the “LD50, indirect cytotoxicity” value [1] was 267 pM, the EC50 (TOK107-hIg [2]) was 0.0049 nM and the EC50 [5] was 90 nM.

B6: mAb 8F1 (antibody, IgG1, V domains shown)
VH: QVQLQQPGAELVKPGASVQMSCKASGYIFTGYWMYWVKQRPGQGLEWIGRIHPSDSNTNYNQKFKGKATLTVDKSSSTAYMQLSSLTSEDSAVYYCTHALAYWGQGTLVTVS
VL: DVVLTQTPLTLSITIGQPASISCKSSQSLLYSNGKTYLSWLLQRPGQSPKRLIYLVSQLDSGVPDRFTGSGSGTDFTLKISRVEAEDLGVYYCVQGTHLFTFGSGTKLEIK
B6: binds (TOK107-hIg [4]); binds [6].

B7: mAb Abx-393 (antibody, IgG1, V domains shown)
VH: QVQLQESGPGLVKPSETLSLTCTVSGGSIRHYYWSWIRQPPGKGLEWIGYIYYSGSTNYNLSLKSRVTISRDTSKNQVSLKLSSVTAADTAVYYCAAGMGFDYWGQGTLVTVSS
VL: DIQMTQSPSSLSASIGDRVTITCRASQAIRNDLGWYQLKPGKAPKRLIYSASSLQSGVPSRFSGSGSGTEFTLTISSLQPEDSATYYCLQHNSFPPTFGQGTKVEIK
B7 was tested, and the “LD50, indirect cytotoxicity” value [1] was > 5400 pM and the binding result (TOK107-hIg [4]) was “binds”.

B8: mAb Abx-221 (antibody, V domains shown)
VH: EVQLLESGGGLVQPGGSLRLSCAASGFTFSRYAMNWVRQAPGKGLEWVSGISGSGGSTYYADSVKGRFTISRDNSKNTLYLQMNSLRAEDTAVYYCAKDRDFWSGPFDYWGQGTLVTVSS
VL: EIVMTPSSATLSVSPGERATLSCRASQSVSRSLAWYQQKPGQAPRLLIYGASTRATGIPARFSGSGSGTEFTLTISSLQSEDVAVYYCQQYNNWMCSFGQGTKLEIK
With B8 the “LD50, indirect cytotoxicity” value [1] was 207 pM and the EC50 (TOK107-hIg [2]) was 6.55 nM.

B9: mAb Abx-229 (antibody, V domains shown)
VH: EVQLLESGGGLVQPGGSLRLSCAASGFTFSRYAMNWVRQAPGKGLEWVSGISGSGGRTYYADSVKGRFTISRDNSKNTLYLQMNSLRAEDTAVYYCAKDRDFWSGPFDYWGQGTLVTVSS
VL: EIVMTPSSATLSVSPGERATLSCRASQSVSRNLAWYQQKPGQAPRLLIYGASTRATGIPARFSGSGSGTEFTLTISSLQSEDFAVYYCHQYSNWMCSFGQGTKLEIK
B9 was tested, and the “LD50, indirect cytotoxicity” value [1] was 78 pM and the EC50 (TOK107-hIg [2]) was 29.5 nM.

B10: mAb 6H8 (antibody, IgG2, V domains shown)
VH: QVQLVESGGGVVQPGRSLRLSCAASGFTFSSYGMHWVRQAPGKGLEWVAAIWYDGSNKYYADSVKGRFTISRDNSKNTLYLQMNSLRAEDTAVYYCARGRSSSYFDYWGQGTLVTVSS
VL: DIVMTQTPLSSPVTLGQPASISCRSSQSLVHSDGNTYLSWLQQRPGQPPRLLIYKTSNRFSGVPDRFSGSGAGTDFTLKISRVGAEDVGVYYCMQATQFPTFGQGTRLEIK
B10 was tested, and the “LD50, indirect cytotoxicity” value [1] was > 4820 pM and the binding result (TOK107-hIg [4]) was “binds”.

B11: mAb 10C10 (antibody, IgG2, V domains shown)
VH: QVQLVESGGGVVQPGRSLRLSCAASGFTFSSYGMHWVRQAPGKGLEWVAAIWYDGSNKYYADSVKGRFTISRDNSKNTLYLQMNSLRAEDTAVYYCARGRSSSYFDYWGQGTLVTVSS
VL: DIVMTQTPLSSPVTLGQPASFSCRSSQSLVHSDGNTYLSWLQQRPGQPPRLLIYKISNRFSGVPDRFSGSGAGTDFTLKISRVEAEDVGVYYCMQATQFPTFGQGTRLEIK
B11 was tested, and the “LD50, indirect cytotoxicity” value [1] was 2440 pM.

B12: mAb 8C2 (antibody, IgG2, V domains shown)
VH: QVQLVESGGGVVQPGRSLRLSCVASGFTFSSYGMHWVRQAPGKGLEWVGAIWYDGSNKYYAASVKGRFTISRDNSKNTLYLQMNSLRAEDTAVFYCARGRSSSYFDYWGQGTLVTVSS
VL: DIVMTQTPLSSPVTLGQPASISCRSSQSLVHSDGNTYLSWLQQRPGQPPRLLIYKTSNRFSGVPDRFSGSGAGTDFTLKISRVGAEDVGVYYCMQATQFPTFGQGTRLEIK
B12 was tested, and the “LD50, indirect cytotoxicity” value [1] was 2040 pM and the binding result (TOK107-hIg [4]) was “binds”.

B13: mAb 10D3 (antibody, V domains shown)
VH: QVQLQQWGAGLLKPSETLSLTCAVFGGSFSGYYWSWIRQPPGKGLEWIGEINHRGNTNDNPSLKSRVTISVDTSKNQFALKLSSVTAADTAVYYCARERGYTYGNFDHWGQGTLVTVSS
VL: EIVLTQSPGTLSLSPGERATLSCRASQSVSSRYLAWYQQKPGQAPRLLIYGASSRATGTPDRFSGSGSGTDFTLTISRLEPEDFAVYFCQQYERSFTFGPGTKVD
In the case of B13, the “LD50, indirect cytotoxicity” value [1] is reported as 1600 pM and the binding result (TOK107-hIg [4]) is reported as “binds”.

B14: 5F9-vc-MMAF (antibody, V domains shown)
VH: QVQLQQWGAGLLKPSETLSLTCAVFGGSFSGYYWSWIRQPPGKGLEWIGEINHRGNTNDNPSLKSRVTISVDTSKNQFALKLSSVTAADTAVYYCARERGYTYGNFDHWGQGTLVTVSS
VL: EIVMTQSPATLSVSPGERATLSCRASQSVSRNLAWYQQKPGQAPRLLIYGASTRATGIPARFSGSGSGTEFTLTIGSLQSEDFAVYYCQQYKTWPRTFGQGTNVEIK
modifications: mc-vc-MMAF drug-linker on reduced interchain cysteines of the antibody; positions not given
notes: Antibody drug conjugate of 5F9; average loading about four
For B14, the “LD50, direct cytotoxicity, CT 26 GCC #2.5 cells” value (from here on “LD50 … CT 26 GCC #2.5 cells”) [7] was > 10 nM, the “LD50, direct cytotoxicity, CT 26 GCC #32 cells” value (“LD50 … CT 26 GCC #32 cells” below) [7] was 0.004 nM and the “LD50, direct cytotoxicity, HT 29 GCC #2 cells” value (from here on “LD50 … HT 29 GCC #2 cells”) [7] was 0.127 nM. For the same binder, the “LD50, direct cytotoxicity, HT 29 GCC #5 cells” value (from here on “LD50 … HT 29 GCC #5 cells”) [7] was 563 nM, the “LD50, direct cytotoxicity, HT 29 GCC #18 cells” value (from here on “LD50 … HT 29 GCC #18 cells”) [7] was > 10 µM and the “MFI at 0.001 µg/ml” value [8] was 440. The “MFI at 0.004 µg/ml” value [8] was 707, the “MFI at 0.016 µg/ml” value [8] was 1500 and the “MFI at 0.063 µg/ml” value [8] was 4830. The “MFI at 0.25 µg/ml” value [8] was 7560 and the “MFI at 1 µg/ml” value [8] was 7780.

B15: 5F9-vc-MMAE (antibody, V domains shown)
VH: QVQLQQWGAGLLKPSETLSLTCAVFGGSFSGYYWSWIRQPPGKGLEWIGEINHRGNTNDNPSLKSRVTISVDTSKNQFALKLSSVTAADTAVYYCARERGYTYGNFDHWGQGTLVTVSS
VL: EIVMTQSPATLSVSPGERATLSCRASQSVSRNLAWYQQKPGQAPRLLIYGASTRATGIPARFSGSGSGTEFTLTIGSLQSEDFAVYYCQQYKTWPRTFGQGTNVEIK
modifications: mc-vc-MMAE drug-linker on reduced interchain cysteines of the antibody; positions not given
notes: Antibody drug conjugate of 5F9
With B15 the “LD50 … CT 26 GCC #2.5 cells” value [7] was > 500 nM, the “LD50 … CT 26 GCC #32 cells” value [7] was 267 nM and the “LD50 … HT 29 GCC #2 cells” value [7] was 24.1 nM. For the same binder, the “LD50 … HT 29 GCC #5 cells” value [7] was 654 nM, the “LD50 … HT 29 GCC #18 cells” value [7] was 0.555 µM and the “LD50, direct cytotoxicity, HT29 GCC#5 cells” value [7] was 0.59 nM. The “MFI at 0.001 µg/ml” value [8] was 445, the “MFI at 0.004 µg/ml” value [8] was 696 and the “MFI at 0.016 µg/ml” value [8] was 1790. The “MFI at 0.063 µg/ml” value [8] was 4850, the “MFI at 0.25 µg/ml” value [8] was 7300 and the “MFI at 1 µg/ml” value [8] was 7420.

B16: 5F9-mc-MMAF (antibody, V domains shown)
VH: QVQLQQWGAGLLKPSETLSLTCAVFGGSFSGYYWSWIRQPPGKGLEWIGEINHRGNTNDNPSLKSRVTISVDTSKNQFALKLSSVTAADTAVYYCARERGYTYGNFDHWGQGTLVTVSS
VL: EIVMTQSPATLSVSPGERATLSCRASQSVSRNLAWYQQKPGQAPRLLIYGASTRATGIPARFSGSGSGTEFTLTIGSLQSEDFAVYYCQQYKTWPRTFGQGTNVEIK
modifications: mc-MMAF drug-linker on reduced interchain cysteines of the antibody; positions not given
notes: as for B14
In the case of B16, the “LD50 … CT 26 GCC #2.5 cells” value [7] is reported as > 10 nM, the “LD50 … CT 26 GCC #32 cells” value [7] is reported as 0.064 nM and the “LD50 … HT 29 GCC #2 cells” value [7] is reported as 3.1 nM. For the same binder, the “LD50 … HT 29 GCC #5 cells” value [7] was > 10000 nM, the “LD50 … HT 29 GCC #18 cells” value [7] was > 10 µM and the “LD50, direct cytotoxicity, HT29 GCC#5 cells” value [7] was > 10 nM. For the same binder, the “MFI at 0.001 µg/ml” value [8] was 483, the “MFI at 0.004 µg/ml” value [8] was 776 and the “MFI at 0.016 µg/ml” value [8] was 2110. The “MFI at 0.063 µg/ml” value [8] was 5350, the “MFI at 0.25 µg/ml” value [8] was 7400 and the “MFI at 1 µg/ml” value [8] was 7580.

B17: mAb Abx-020 (antibody, IgG1, V domains shown)
VH: QVQLVESGGGLVKPGGSLRLSCAASGFTFSDYYMSWIRQAPGKGLEWISYITSSGSTIYYSASVKGRFTISRDNAKNSLYLQMNSLRAEDTAVYYCARDFSGWFGVHFDYWGQGTLVTVSS
VL: DIVMTQTPLSLSVTPGQPASISCKSSQSLLHSDGKTYLYWYLQKPGQPPQLLIYEVSNRFSGVPNRFSGSGSGTDFTLKISRVEAEDVGVYYCMQSIQLTWTFGQGTKVEIK
In the case of B17, the “LD50, indirect cytotoxicity” value [1] is reported as 569 pM and the EC50 (TOK107-hIg [2]) is reported as 4.58 nM.
